Test results published in patent US9591845B2, “Method for treating blood, blood products and organs” (FORSCHUNGSZENTRUM JUELICH GMBH, priority 2012, dated 2017).
Non-standard residues stand in square brackets, D forms with d. No end group written: not given here.

Molecular target: A-beta peptide (1-42) (Homo sapiens, UniProt P05067)
Assay: ThT seeding assay
Type: biochemical
Details: coaggregates formed with 20 μM inhibitor, 7 days at 37° C., 10 mM NaPi pH 7.4; mixed 20:80 with fresh Aβ 20 μM, 10 μM ThT, fluorescence over 20 h

Chain of A-beta peptide (1-42) (P05067 672-713): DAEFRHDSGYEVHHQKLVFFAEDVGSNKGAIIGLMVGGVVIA

Substance | seeding effect of preformed Abeta-inhibitor coaggregates (ability to increase the rate of the aggregation of fresh Abeta / shorten the lag phase)
rprtrlrthqnr ([dR][dP][dR][dT][dR][dL][dR][dT][dH][dQ][dN][dR]) [DB4] | no seeding effect
rpitrlrthqnr ([dR][dP][dI][dT][dR][dL][dR][dT][dH][dQ][dN][dR]) [DB3] | no seeding effect
rpitrlqtheqr ([dR][dP][dI][dT][dR][dL][dQ][dT][dH][dE][dQ][dR]) [DB5] | no seeding effect
rprtrlhthrnr ([dR][dP][dR][dT][dR][dL][dH][dT][dH][dR][dN][dR]) [D3] | no seeding effect
rpitrlhtnrnr [DB1] | no seeding effect
rpittlqthqnr ([dR][dP][dI][dT][dT][dL][dQ][dT][dH][dQ][dN][dR]) [DB2] | no seeding effect

Same assay, conditions: inhibitor-Abeta coaggregates added to fresh Aβ 20 μM, ThT fluorescence over 20 h

Substance | formation of ThT-positive Abeta aggregates in the later phase
rprtrlrthqnr ([dR][dP][dR][dT][dR][dL][dR][dT][dH][dQ][dN][dR]) [DB4] | appear to reduce the formation of ThT-positive Abeta aggregates in the later phase
